Assay results published in publication PMC11480844 (2024).

B1: H2-Kb / F4 (parent complex)
chain 1: QQQVRQSPQSLTVWEGETAILNCSYEDSTFNYFPWYQQFPGEGPALLISIRSVSDKKEDGRFTIFFNKREKKLSLHITDSQPGDSATYFCAAMSNYNVLYFGSGTKLTVEP
chain 2: ETAVFQTPNYHVTQVGNEVSFNCKQTLGHDTMYWYKQDSKKLLKIMFSYNNKQLIVNETVPRRFSPQSSDKAHLNLRIKSVEPEDSAVYLCASSARQNSPLYFAAGTRLTVT
chain 3: not shown
chain 4: IQKTPQIQVYSRHPPENGKPNILNCYVTQFHPPHIEIQMLKNGKKIPKVEMSDMSFSKDWSFYILAHTEFTPTETDTYACRVKHDSMAEPKTVYWDRDM
chain 5: SIINFEKL
B2: H2-Kb / Ed8 (parent complex)
chain 1: AQSVTQPDARVTVSEGASLQLRCKYSYFGTPYLFWYVQYPRQGLQLLLKYYPGDPVVQGVNGFEAEFSKSNSSFHLRKASVHWSDWAVYFCAVSPGSGGKLTLGAGTRLQVNL
chain 2: DSGVVQSPRHIIKEKGGRSVLTCIPISGHSNVVWYQQTLGKELKFLIQHYEKVERDKGFLPSRFSVQQFDDYHSEMNMSALELEDSAMYFCASSPRASNYTFGSGTRLLVI
chain 3: not shown
chain 4: B1 chain 4
chain 5: SIINFEKL

Variants of: B1
Assay: % of reporter cells activated (NFAT-GFP), raw
Further: test concentration or dose not given here.

In order of rising ratio to parent:
1. chain 5 N4E  0.0228
2. chain 5 S1R  0.0259
3. chain 5 F5P  0.0353
4. chain 5 N4W  0.0415
5. chain 5 F5D  0.129
6. chain 5 F5G  0.264
7. chain 5 I2N  0.305
8. chain 5 I3A  0.467
9. chain 5 L8T  0.614
10. chain 5 I2M  0.617
11. chain 5 L8H  0.805
12. chain 5 F5C  1.29
13. chain 5 I2A  1.38
14. chain 5 I2V  1.94

Variants of: B2
Assay: % of reporter cells activated (NFAT-GFP), raw

In order of falling ratio to parent:
1. chain 5 F5L  1.41
2. chain 5 I3H  1.4
3. chain 5 I2D  1.39
4. chain 5 S1T  1.37
5. chain 5 I2L  1.37
6. chain 5 I2E  1.34
7. chain 5 I2C  1.33
8. chain 5 F5T  1.32
9. chain 5 I3L  1.3
10. chain 5 F5C  1.3
11. chain 5 S1G  1.28
12. chain 5 S1M  1.27
13. chain 5 I2N  1.26
14. chain 5 I3P  1.25
15. chain 5 K7H  1.25
16. chain 5 S1Q  1.24
17. chain 5 I2K  1.18
18. chain 5 F5P  1.16
19. chain 5 I2R  1.16
20. chain 5 I2W  1.16
21. chain 5 L8I  1.15
22. chain 5 S1V  1.15
23. chain 5 I3A  1.14
24. chain 5 S1P  1.13
25. chain 5 L8F  1.12
26. chain 5 F5D  1.12
27. chain 5 F5W  1.12
28. chain 5 F5V  1.09
29. chain 5 I2Q  1.06
30. chain 5 I2Y  1.06
31. chain 5 S1W  1.05
32. chain 5 F5G  1.03
33. chain 5 S1L  0.917
34. chain 5 L8D  0.903
35. chain 5 K7S  0.898
36. chain 5 N4L  0.84
37. chain 5 K7L  0.815
38. chain 5 K7V  0.73
39. chain 5 K7I  0.698
40. chain 5 K7P  0.689
41. chain 5 E6A  0.678
42. chain 5 K7G  0.616
43. chain 5 E6Y  0.606
44. chain 5 K7M  0.578
45. chain 5 I3R  0.541
46. chain 5 E6R  0.459
47. chain 5 E6M  0.453
48. chain 5 N4R  0.442
49. chain 5 K7F  0.393
50. chain 5 N4E  0.336
51. chain 5 N4T  0.262
52. chain 5 N4A  0.255
53. chain 5 N4S  0.216
54. chain 5 N4H  0.155
55. chain 5 K7E  0.0642
56. chain 5 E6C  0.0436
57. chain 5 E6V  0.0189
58. chain 5 E6W  0.012
59. chain 5 N4W  0.00716
60. chain 5 N4Q  0.00512
61. chain 5 N4P  0.00499
